# Test results reported in patent US20190183138.
# How the values were obtained:
# bovine β-casein = target: T1, bovine β-casein (UniProt P02666)
# T1 sequence: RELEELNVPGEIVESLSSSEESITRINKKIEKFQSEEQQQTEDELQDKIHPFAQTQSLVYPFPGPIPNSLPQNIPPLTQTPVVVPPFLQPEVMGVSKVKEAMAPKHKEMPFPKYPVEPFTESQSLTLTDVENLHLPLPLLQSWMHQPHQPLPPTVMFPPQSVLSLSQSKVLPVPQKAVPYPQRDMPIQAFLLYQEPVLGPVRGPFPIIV
# bovine κ-casein = bovine κ-casein (UniProt P02668)
# bovine κ-casein, sequence (P02668 22-190): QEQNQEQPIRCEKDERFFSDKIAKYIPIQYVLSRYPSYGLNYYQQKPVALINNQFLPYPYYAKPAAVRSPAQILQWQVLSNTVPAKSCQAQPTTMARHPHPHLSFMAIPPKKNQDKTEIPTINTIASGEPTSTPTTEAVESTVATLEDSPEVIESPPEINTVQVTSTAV
Substance,hydrolysis of isolated casein as a function of time (SDS-PAGE) (bovine α-casein),hydrolysis of isolated casein as a function of time (SDS-PAGE) (bovine β-casein),Km (bovine κ-casein) [mg/mL],hydrolysis of isolated casein as a function of time (SDS-PAGE) (bovine κ-casein),kcat (min) (bovine κ-casein) [s⁻¹],kcat./Km [mL/(mg · min)] (mL/(mg · min)) (bovine κ-casein)
Cynanchum otophyllum Schneid. protease QC (identified as cysteine protease B of Calotropis R. Br.),α-casein was only partially hydrolyzed,The QC also exhibited a higher rate of hydrolysis than QA for β-casein and κ-casein,1.708 ± 0.014,Most of the κ-casein was hydrolyzed by QC after 30 min of incubation,1.39,49 ± 1.93
Cynanchum otophyllum Schneid. protease QA (identified as asclepain of Asclepias Linn.),α-casein was only partially hydrolyzed,β-Casein and κ-casein were completely hydrolyzed after 4 h of incubation,0.397 ± 0.002,hydrolysis by QA required almost 4 h,1.66,251 ± 6.11
